Assay results: paper PMC9032424 (PLoS ONE, 2022)

Target: T1, HisH (glutaminase subunit of Imidazole Glycerol Phosphate Synthase) from Thermotoga maritima (Thermotoga maritima, UniProt Q9X0C8 1-201)
T1 construct: HisH, Thermotoga maritima; cloned NdeI/XhoI into pET28a; No removal of the His-tag is described; source: bacteria transformed with pET28a, purified (70°C heat step, Ni-NTA agarose)
T1 sequence: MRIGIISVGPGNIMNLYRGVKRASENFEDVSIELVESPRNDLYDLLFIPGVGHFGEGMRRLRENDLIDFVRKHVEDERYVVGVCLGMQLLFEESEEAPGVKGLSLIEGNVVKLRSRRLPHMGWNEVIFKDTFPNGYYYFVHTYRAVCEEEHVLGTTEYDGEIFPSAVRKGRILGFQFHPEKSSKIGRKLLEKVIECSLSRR
Experiment: other fluorescence titration; intrinsic tryptophan fluorescence; 15 uM HisH mixed with sub-stoichiometric HisF (1 to 5 uM); 20 mM potassium phosphate pH 7.5; excitation 295 nm, difference spectra read at 321 nm; fluorescence as proxy of concentrations; 30°C
Settings: both partners purified

B1: HisF E167A (enzyme, Thermotoga maritima)
chain: MLAKRIIACLDVKDGRVVKGTNFENLRDSGDPVELGKFYSEIGIDELVFLDITASVEKRKTMLELVEKVAEQIDIPFTVGGGIHDFETASELILRGADKVSINTAAVENPSLITQIAQTFGSQAVVVAIDAKRVDGEFMVFTYSGKKNTGILLRDWVVEVEKRGAGAILLTSIDRDGTKSGYDTEMIRFVRPLTTLPIIASGGAGKMEHFLEAFLAGADAALAASVFHFREIDVRELKEYLKKHGVNVRLEGL
notes: HisF, Thermotoga maritima, with the single mutation E167A; parent is the HisF of m1; probably as the His-tagged wild-type HisF; also called mutant HisF
- fold increase of Kd against wild-type HisF: 10 fold

B2: HisF F210A (enzyme, Thermotoga maritima)
chain: MLAKRIIACLDVKDGRVVKGTNFENLRDSGDPVELGKFYSEIGIDELVFLDITASVEKRKTMLELVEKVAEQIDIPFTVGGGIHDFETASELILRGADKVSINTAAVENPSLITQIAQTFGSQAVVVAIDAKRVDGEFMVFTYSGKKNTGILLRDWVVEVEKRGAGEILLTSIDRDGTKSGYDTEMIRFVRPLTTLPIIASGGAGKMEHALEAFLAGADAALAASVFHFREIDVRELKEYLKKHGVNVRLEGL
notes: HisF, Thermotoga maritima, with the single mutation F210A; parent is the HisF of m1; probably as the His-tagged wild-type HisF; also called mutant HisF
- fold increase of Kd against wild-type HisF: ~3 fold

B3: HisF L169A (enzyme, Thermotoga maritima)
chain: MLAKRIIACLDVKDGRVVKGTNFENLRDSGDPVELGKFYSEIGIDELVFLDITASVEKRKTMLELVEKVAEQIDIPFTVGGGIHDFETASELILRGADKVSINTAAVENPSLITQIAQTFGSQAVVVAIDAKRVDGEFMVFTYSGKKNTGILLRDWVVEVEKRGAGEIALTSIDRDGTKSGYDTEMIRFVRPLTTLPIIASGGAGKMEHFLEAFLAGADAALAASVFHFREIDVRELKEYLKKHGVNVRLEGL
notes: HisF, Thermotoga maritima, with the single mutation L169A; parent is the HisF of m1; probably as the His-tagged wild-type HisF; also called mutant HisF
- fold increase of Kd against wild-type HisF: ~3 fold

B4: HisF K13A (enzyme, Thermotoga maritima)
chain: MLAKRIIACLDVADGRVVKGTNFENLRDSGDPVELGKFYSEIGIDELVFLDITASVEKRKTMLELVEKVAEQIDIPFTVGGGIHDFETASELILRGADKVSINTAAVENPSLITQIAQTFGSQAVVVAIDAKRVDGEFMVFTYSGKKNTGILLRDWVVEVEKRGAGEILLTSIDRDGTKSGYDTEMIRFVRPLTTLPIIASGGAGKMEHFLEAFLAGADAALAASVFHFREIDVRELKEYLKKHGVNVRLEGL
notes: HisF, Thermotoga maritima, with the single mutation K13A; parent is the HisF of m1; probably as the His-tagged wild-type HisF; also called mutant HisF
- fold increase of Kd against wild-type HisF: ~3 fold
